Data from the domain aggregation screens of Martell et al. (2025).

test: soluble fraction after stress (log2 fold change); higher = more stays soluble; pooled small domains, quantitative proteomics; conditions: stress: pH 4
Outline: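 Custom libraries of small protein domains were pooled and measured with high-throughput quantitative proteomics after pH 4 stress. The read-out is the fold change in the amount of each domain that stays soluble after the acid stress, taken as a measure of aggregation propensity. Fold changes are on a log2 scale, and higher values mean more of the domain stayed soluble.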

| Sequence | soluble fraction (log2) |
| --- | --- |
| HMPISQGATVKHNANMRKGASTKYKVTGVLQEGEEVKILSQSNGWYKIQNSDNEKGWTYNTHINASDK | -0.0274 |
| HMEDISQHAVKKLVQEMVMAEDPRDPLSDQQIAENLSRLGLKVARRTVAKYRAMLGIQPSNRRRK | 0.0963 |
| HMAKRQATIVYEGTNVRSGPSTSSAIVKRTGKGESYPIVSTKGDWYEIKLSNGDSAYVASWVVQTVD | -0.871 |
| HMATMSIDERILEIRSRAGLTQQEMADRLFVTRQAVSRWERGETVPGIDTLRLIAEAFDVRVDQILEL | -1.11 |
| HMVDYSMEDSVWNNKKEHVNEWFDANPEHEGRRVIVDGLFAIGDAQPDLRKRHWSSISVVFADLDNSPIG | -1.01 |
| HMVVYQRVHDEILQALKDNVYPVGTLLPPEPELERIYSVSRTTVRRAIAKLSEEGYVQVRQGYGTMVLKN | 0.22 |
| HMTLDDSIALGRSLLDKGLMDFGTNLANLAEDKLRDFLSQQRYENLDDLFADIARGNRLPMFTAQQLLS | -0.481 |
| HMYMKLSVKDAALFLSVSPETVYRWVKQEEIPYHTVNDQLRFNRAELLEWATARSLEVSPDLFVP | -1.53 |
| HMAVSGRMMVYEYIRQQMREGSLLPGSVLDLPAISHKLGISNTPLRDSLIRLEAEGYLTIYPRSKVVIN | -0.254 |
| HMDIPDIGHNVRIEVDGHNGKTTHEGIILHPAAPNHITIKLANGYNASYKLEEIINIEILGELGDDSKI | -0.863 |
| HMGSTYGISRVDNETSRTHGWLVTIQRRGVIYRKHFSDGVFGGKQRSFAAAKEYRDEVIAAHP | -0.00453 |
| HMGTQKVQVVNGPINVRSGPGPTFEKIGMVEDQAVYQVVSKKDDWFQISLPGNKTAWVAGWLVKEIK | -0.0241 |
| HMVPLSMLTEGQIFRGQVLDITSQGIKIQLNPEQILFARLGEQVELNIGQQMAFQVRENKGDQLIIHPMQN | -1.18 |
| HMASFTDAQALEVKDLYPDWSKIPEGTHLEAGQRVRYNGNLYKVRTGQAHDKQSTWTPTDAASLFEAID | 0.0558 |
| HMLPSDLDEGNRRRQLIEGAARLFRAKGFDGTSTRDIAAAAGMRSGSPFYHFDSKNALLYVVVQEGM | -0.115 |
| HMAMESDELETLVDQLIVDHPDEWSRFVGGDDGDRKKMQGFFTGQIMKATKGQADGRAVAQLLGQKSA | -0.337 |
| HMPIRVGDAFESLAGVFPDEYNKALRKSTKKPVFFVPVKVEAGSGALRQKGKITFIVKDGRIDAIQIAL | -0.514 |
| HMTFAEADAQYEVIKQQYLAGALDEEQFDEQLHRLMVLDDGGLWWAKSRENGSWHYYDPDREDWIAATP | -0.995 |
| HMIRALVPGQTLHGEIVGRNGGEVQVRLAEDMILNARVDQNIYLELGKDLTFEVKNNGATLTLSPL | -0.552 |
| HMSYANVEWRDFLNSLDEKYRIVVILYYVQGFKTREIAEILQINQSTVRGRLAKAREKLEQQYN | -1.13 |
| HMHTGLTNYEYKQIKSSLLKILTQSESMRLGELVDKVDQFESEKVTTVIRFLVGNEELMLFDDTLTLKKQL | -0.232 |
| HMFGQRLRLARKRAGLSMQALAQRMSPPVTAQAISKYEADRMMPSSAVLVGLGKALGVSLDFLMGGQ | 0.068 |
| HMNNPLPDLLKYFRKKKHLTQEQVAKQLSVSRASYASYETGRIIPGMQHIMELSRILEHDFLFAYTLAVQ | -0.446 |
| HMPPHGHIVELLPEQDFGRIETGDGRLVYFHRNSVLDGDFAQLAVGDAVRFAEEMGERGPQASSVHVE | -0.948 |
| HMITFRINQQSQVGLRLDKFIVQQMPDYSRTRIQSWIKTKNILVNGEGKKSGYALEFDDLVEVTIPE | 0.0398 |

| Sequence | soluble fraction (log2) |
| --- | --- |
| HMTVLTDEIKVILISYIKENDFKKKHGNRKMMMTAQDMYDELVEKGYKISYPTVTQYVQKYRENETT | -0.0952 |
| HMQEGPGLVPDFRGQTMREVLRGGQSLGVRVAVDGTGLAVAQTPEPGSPLNKVSQVTVSFRPP | 0.22 |
| HMEKIYLISDAAKQVNVEAHVLRYWEEELDIPAKRNELGHRYYTQEDIETFRKVKELKAQGIQLKGIKNIL | -1.07 |
| HMKMAKTIKEIAEEIGVSKQAVFKKIKQVPLSTEIEKFISTVDGKKLVSVDGENLIKQAFQR | 0.255 |
| HMRTAKEVFYKELKGYMQNGDELSVKKIYSLFPEINPKTVSWRLHELVQHGKIHRTGHGYYALTQ | 0.0797 |
| HMLNMSVYDKQLLRAVENNPFISQRELARELHWNVDRVKYYMKKWKDKGGLRHVGSSHKGYWEVLVRIEEK | -0.0578 |
| HMGMIRFSKEEQMLMMLYSPGSRLGLIAELESMKLQLNSRERKLRNLAESVLKKLEQITDEEFMQFDF | -1.11 |
| HMDSERTALLSSDRTSFTAREAALLIGVSQRDIYRMIEDELLDSFTVGKMIRIRRSALEWWLS | -1.46 |
| HMVNIAVMTVSDTRTEADDKSGSLLVSKIEGDGHVLADRAIITDDVPRIIAKLKEWIESPQVDVVVT | -0.606 |
| HMLKKRKPMSGVGVIVKGMLTGTVTGTDGSYALKARPNDELSFSFLGYKTQEVFVGSKSTIDITLVDEA | -0.0294 |
| HMSVKSVSLRKISYKVRRGDSLYNIAKNFSLSINDITHWNSINKKSYLQPGQRLTLYINPRN | 0.193 |
| HMVVSDKIAFSSFLKSVEDGRVVEVEITGNDIRGILSDGTVFNTYAPNDPNLVEKLTSKGVNITALPKE | 0.0738 |
| HMEAVIGGIYRHYKGNNYKLLAVATHSETLEKMAVYQALYGEMGIWVRPLAMFMETIEKDGQSLKRFE | -0.932 |
| HMFPTLSPEEQRIVDQLAKENDLQANVIALRTALTIPQISALLFSLEMKGMVRLYAGGTYHLI | -0.142 |
| HMDHFFSKYDSIVNHTVQKKETLFGISKKYGLTINEVIKFNPGIQIDKLKRRSVLIIPLMKKN | -0.0453 |
| HMFKYLLDTNIVIYVIKKRPIEVMGVFNQNANRMAISAITFSELQHGAEKSVRVQENLNAIEEFTTLIDI | -0.537 |
| HMSLIEQKSQIPLVQGGQRVDKVAAALFTDFSRAELTGWIQQGALTLDGAVVKPKYKVLGGEWLYLRASQS | -0.213 |
| HMNTSMIEHMDKSTFIRFVFTNPVTHDQAVAKLMEKHMWFSTEEKAEAEIDKLLNKTNSLIESGGKLTW | 0.22 |
| HMSGTGSYVALLRDPQGNVGKVVVKGSKGEQVLSQPQQAARLDGATPSYEVTGRQIAEDFGRALAV | -0.198 |
| HMGPGDTTIPTTIIGMSLEEARNELSAAGLLVARIIPVDSNSRTGTVLKITPDAGSIIKAGSGVELEIAS | 0.206 |
| HMGKRPTIQMVAEMAGVSRGTVDRVLNGRSYVSAQVRQRVLAALQETGYISSREHHQQALQS | 0.0645 |
| HMQGENDVTIDPKKLTIGDLAKEISKIEDSEELNNILVAEKEGKGRKGAINAITERIENVSGGTG | 0.22 |
| HMSMVGNIEKILVTGESKKSSELLAGRTENNRVVNFTGEKVLIGSMVNVRIEEVFPNSLGGSYLPS | 0.0322 |
| HMLPVDALFAQHPALIVTLGQTEKLKHGAAIRDWHFADGTYRVYSETGEFLLLGTVKGQILTTVKSFFE | -0.828 |
| HMRKLDQRLAGLLLGKGRLVKATHQQLADELGSVREMVSRLLKGFAEHDLVRMSREQIEIVDAAGLRKLAD | -0.611 |

| Sequence | soluble fraction (log2) |
| --- | --- |
| HMVFTEEERAEYREKMLDAGFDLLKQYGMTHMSVAKITEAAGIGVSTFYNFFSSKEEYVYEVLQYRRRK | -0.392 |
| HMVRDPYELLEVPREATPDEIKSAFRKLAARHHPDRNPDDPGAQERFKEINAAYQLLSDPQKRAMFDRFGA | 0.331 |
| HMGPFYFDQDGKAYSGLLNRNGEILYFADPFNAAVKNTTKTIDGKTYTFNQNGRATSIDGIPLEPP | -0.17 |
| HMRRRVIGTLVMGDMSTDFKVLADGHTHRVLAAAISFHKAKPGDEVVILVPKSAPSKWAAVEHVMK | ≥ 0.43 |
| HMTETFVLNLRQPIAAAPVLPGYRVARTDEQTLEVEVSKDQNLNEIFTALSALGVEVLSMRNK | -0.303 |
| HMGLQEADKQDRIARMKELISFLNEAAKAYYQEGREIVSNLEYDKAYDALLSLEKESGVVLSGSPSQNVG | -0.659 |
| HMSYQNKLNYLINAFGGADNFQKLLGVGPSAISNYKSRKHLPLNQAKRLSKIAPQFGFSLDPHSLQIST | 0.0613 |
| HMNDLKVGELAKRGNVTAETVRHYTREGLLSPTRHPDNGYQLFSATDLERLHFIQRARKLGFSVAEIRDIL | -0.278 |
| HMFNDPTMEDALVNLKGITNEVLSYLSSSKIKKLEELAEMSVPELKDIVENISDDEASALIMEARKPWF | -1.32 |
| HMHRAKRTKAQTQSSLESIEGIGPKTRKQLLVHFGGLAEVKAASVSELQKVKGISLDKAQKIYDFFHGS | 0.119 |
| HMNDREAAYEDLPDELVRVGQKVFIKSLETEGVIVQPPNKKGEVRVRSGNISTNVKRSDLGLPIEKP | 0.149 |
| HMKTLSKEDIGFLSDEAVGEMRKAVANGEMLELRALIDQVGEKNPIVAEKLLTLVKQYDYENLNRVLE | -0.802 |
| HMGYTPGVVIQKSAILEEINQPDLALGMMLEAVKKDSQNLDILNRLVTLLIDQKKNEDAEIYNKKIIT | 0.187 |
| HMESYTGLAVTEDDDGWSNVRSGNSTSYSILFKIYAGEKFNILSNDGKWSYIDFNGRKGYIHNSIIRKY | 0.31 |
| HMADGKWTLTDAGYTFTYSDGRKARGTWEDIDGEWYHFDRNGIMETGWKTVGNIRYHFNQDGSL | -0.363 |
| HMTASVTDAMFELIDELPKLGKTSFRQLTADLVDRLQVVVTFLAVLELYKQGHVELDQSERFGDITVVWTG | -1.11 |
| HMGIKDRIVYIMEKEKLSIPLFAKKIGIGPSTLLHIIRGKNAPSLQVVQAIHKAYPDIDLNWLI | 0.0346 |
| HMQTRIDISDAVLQWVVRKTQFAALPPKAAAHLTKWVRGEKKPTFNQLEEVSKATGIPLGYFFLQQPPHE | -0.561 |
| HMRSKTDLVYEEIKKLILRGELSSDTPISENHLARRFEISRTPIREALKRLHIEGFVRIIPNHGVFVR | -0.304 |
| HMGSTDTLEDALEAAEKISYPVIIKATAGGGGRGMKVASSLEELKKVYHTTKLEAKNAFGNDQVYIEKYL | -0.0649 |
| HMKTLDAFFDQARDAYKKLKKDGDIDNLKVLRNQLQTVRETQGDAVRKKSKEEYRRLVDIIDDIDGLLAAF | -0.154 |
| HMGGRSARVRRAVLDAVVELLGEGGVRAVTIAEVAKRSGVNASSIYRRWRSIDALILDAAQDL | -0.578 |
| HMNTLLYAPKVSPNPFTPNADGINDVVNISYKLLRVISAVPISVEVFDLSGRLIKTLYSGVDPLGEY | 0.425 |
| HMSLGPNAYGKPATALNILRETVMGKELFDHAFKTYSKRWMFKHPSPEDFFRTMEDASAVDLDWFWR | 0.22 |
| HMGGLIEPLSARELEVLELMSLGKTNQEIARDLVVASGTIKAHAASIYRKLDAANRTEAVTHARELGIL | -0.814 |
